Results from the domain aggregation screens of Martell et al. (2025).

Test: soluble fraction after stress (log2 fold change); higher = more stays soluble; pooled small domains, quantitative proteomics
Settings: stress: 75 degC
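Note: 20 min heating vs room temperature control held 20 min.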

| Sequence | soluble fraction (log2) |
| --- | --- |
| HMAAADLNMRAKLADLGGMSYGELSIWEKTHGMEFAAWEHEWEKLNSGTQADGLKFPKHLPEGFPT | 0.185 |
| HMAAAKDVMDWQNAIRGLTDAKGKPYSPTYLKTVHNQLSALFNHAVRYYGLQVNPAAKAGNMGVEE | -0.131 |
| HMAADDGSARAEQLREMYSLISGLDKLDKAIILMWLDERSYDEIAEVTGFTRNNVATRLHRIKSRLARQSN | -1.66 |
| HMAAEIGSGVVDAYDLRLRSQPSTDAETIIYLDNGAKLSVQEDLGDWYKVVSGTYTGYVSAEYVAYTPSPE | -0.806 |
| HMAAELHPYGADSYRGDNPPAGYEIKAKEESKKFHTPSSPWYGRTIAEIWFRTEEAAEAAGFINAVK | -0.246 |
| HMAAELQALSVRELEVLDQLAGGASNREIAQRLYISENTVRNHVHSILTKLKLQNRTQLVGMT | -0.981 |
| HMAAESWTEKSRALAAAGLVVMGRDAQTKIEELTNLAPLIEAANASNTRLLTSQSIDELLSIVPTEENL | 0.0818 |
| HMAAGKGVTTGSVRLRKGSNTDSAIIATLKKDTELILYGKKDGWYSVKTSDGTEGFVSSKYVKVTEAY | 0.61 |
| HMAAGLTPKQKAFADNYIKNGGNAAEAARAAGYSLKNVGANAGKLLKNPKIAAYIAEKQAELDRRNGT | 0.196 |
| HMAAINPSALREPATPPEQLSAGDSVLHPRFGRGEILELQQQGGDPRAIVQFINEPKPRTLVLRYAQLRK | -0.138 |
| HMAAKADAVKKAIAAIGKVDASEDSKAKVEAARKAYAALTEDQKKLVEASQLKLLTEAEAAYQQAVEESKK | -0.283 |
| HMAAMSLGERIGAHRKRMGISQEELGHRMGVSRQAVSKWETGRAVPDMENLLALARLFGVPVSELAD | -0.129 |
| HMAAPVGLTQRQMEVAALVADGLTNAEIGRRLHITERSAESHLERVRIRLGFRSRAQVAAWFVTQE | -3.56 |
| HMAATHYEGIKQDGETDDAVIERVLTGLSVTANKDDIFIVKTLIAGTKYSYTAYVYNGNAWAAM | -1.38 |
| HMAATSTGFPGVEVRGNSIRVFFMYKRDRHAHTLPLEPTRNNIKHADQLRSAALFALRNGTYNEADFFPHS | -1.6 |
| HMAATVKVPDLTKMTPDEAQRALGQVGLKGKQGDDVDDDSVPVGYIAKQDEAPNSDAKAGDTITYHL | 0.15 |
| HMAAVSSHAVKQRIRSLIQAEDPASPLSDEALRLALSALGVEVSRRAVAKYRTSMDIPASSQRKK | -0.656 |
| HMADEDTILALAKEILASWPDKVEAYKNGNKGMLGLFMGELMKKSGGKANPKSASALIQKLLE | -0.13 |
| HMADEIQLVVQVNGKLRGRIMVAPDASREEIEKTALADADVSRFLGDTPVKKVIIVPKRLVNIVAPAPK | -1.08 |
| HMADENIELRKAGLKVTLPRVKILQILEAAKEPHMSAEDVYKALMEANEEVGLATVYRVLTQFESAGL | -0.245 |
| HMADGKWTLTDAGYTFTYSDGRKARGTWEDIDGEWYHFDRNGIMETGWKTVGNIRYHFNQDGSL | -1.52 |
| HMADIGRMKELIDILNRASAVYYQGKDEIMSNFEYDKLYDELVSLEKESGLVLAGSPTQKVGY | -0.179 |
| HMADKHVAAALLKLMDHLVGGRQYAFMKGRLTINKKVVLEATEVSAYRRGTGLSDADWQQRYE | -2.06 |
| HMADLKRLNEQIHYLGQYLSTKATYKEFLQANNKKIYRSEHQDEIAKYEEAAQFLKRSSPDGTIPTMKDLR | -0.27 |
| HMADLSAYAGKEGMTDSVLRPSGKVDIEGHILDAVSRGDFIEKGKRVIVIKAEGSYLVVKKRMP | -1.84 |
| HMADLTEEQKTLFRLIRDLQPVSSKTLLENSGFTRSTQTRLLNGLIEKQIVIRTGNGPATRYSLR | -1.26 |
| HMADLTIDGVEYTKVSPTGTLTLEKVYTKNVTPADGQYYIQTGTKTVRVATDAEVAVIKAGGF | 0.153 |
| HMADNKDMQAAFMEALNGLKEYAKVNGNIVTKEDVNSYFKDMHLDDNKYSMITGYLMANGITIKG | 0.179 |

| Sequence | soluble fraction (log2) |
| --- | --- |
| HMADPRFHSEIMLSKIESLLSGKADSDVSNYSIQGRSLTKMSLQELMDARESYDGLVKSEKAKLDAKY | 0.0156 |
| HMADPVTPQDLIRWSEALAGIARTGLGFTQSLYEQERFEEVLAVAADMRVAAGSSYNPDDLVHEWMKSVG | -0.565 |
| HMADQVVGQLGMVTQRIDNLQQTGRVSANGLDWAARSENGQPIPQGMPVEVLRIEGVKLIVRPVN | -0.114 |
| HMADTIEVVVQVNGKVRAKISTSPEVFADSTKLQELALADANVQKFIAGQTIRKVIIPKGTKLLNIV | -0.198 |
| HMADTSPEGVQKLIKAFEQFGVSKDDIEGFIQRRVDAITPANVVSLRKIFTSLRDGMSSAKDWFKGA | 0.095 |
| HMADVIKLVNTSVLNVRSGAGINYSKIGSLTQGTKVNIISESNGWSKINYNGKIGYISSQYVSEVS | -1.92 |
| HMADVLLKHGSSGDYVWDLQYRLKTLSLFDQEMTGYFGPHTRQAVVNFQRKYGLPADGVVGPATWRALRK | -2.41 |
| HMADVPSTIFEAYRILGLNPEAPPVAVKKVVDALRMSWHPDHARSEPDRRHREERIKQINAAWDLLKGV | -0.183 |
| HMADVYFDGKFLGETPVTVAVSTTGKPAHEISLIRGGYEPWSTTYQGNPRPGQTATVMAILVHA | 0.31 |
| HMAEAAVELSQQILARLLEAGGSLPLSDKSSPEDIHRLFGVSKRTFKKAIGGLYKKGLILIHPERIELP | -1.37 |
| HMAEAETVKFVGNSLLLVSGAAKGERLSVYTVGGQHVLSADATKPVDVAALHSGVYVVRTTNGVITKIVK | -1.25 |
| HMAEATATVTASEMVVRSGPSSSYSVLGSLEKGTVVTVLAASDGIAKISYKGNTGYARIVDMELNSA | -0.612 |
| HMAEDDAVQKAVREAVAESADAVADYKAGSERALNFIVGVVMKKTRGKASPGEVHRLVKAEVEK | 0.595 |
| HMAEDLRTLDGIDEDLLRDLAQAGITTRDGLAELSIDELREITGVEPGEAEKIILAARAHWFETDE | 0.0602 |
| HMAEEGEQAASNTAAQAEDRAAELAAAGEKGKQITKTLVAEFGIPKNEAYRLALDAVAAVKAER | -0.265 |
| HMAEEPLRIWTDLQGRSIEASFIKFSGNNIVIKMKSGRDYEVARSLFSPGDQKYLSDLKKSTPE | -1.5 |
| HMAEERVLSVPQSLAGERLDAALASLMPDYSRSRLASWIKEGLVTVDGAGAMPKQKLWGGETLRVQAQPT | 0.373 |
| HMAEKAVELTENEKAIQTILSNGALEIGELKTKLELSGKQWDVALKGLAKHGITQVSKVEGVVTVGL | 0.359 |
| HMAEKGIGRVNADWLNMRTSPGGEVLTVLKQGTELQVIGRSGSWLEVQHGNEQGYVSSRYITIQP | -0.356 |
| HMAEKVIVVADSITVGELAEKLNLPVTNLIGELFKNGIVSTINQRIDFETASIIVEELGLDVELERK | -0.137 |
| HMAELNLPVRKIGGEDYYYRQVKKKETIYGISKELGITKEDIIKYNPSVASGLQRNQILYFPVKDFK | -0.327 |
| HMAELVISVKADGTIHYQDRQLTKEALAAVLETRPEALLNLYVDEKAPFEAFVGVVDIARLKRGGHFVIST | -1.94 |
| HMAENPAYTKGVVNRLYKIRATPYYSYSYNVDQKTYEGRGKQYGEYENLHIGDTITVYYQRSNPSNSEA | -0.288 |
| HMAEPIEKIIIEGNQRIEALTIQSYLLLRVGEPFNRQLMNQTLKSLYATGYFSDVAVTRVSSSLLVK | 0.153 |
| HMAEPLEIGDTVRIIDGFYGGEIGVISELVNPDAKNAEFEQVRVRLDQDTELALPIHNVERVRL | 0.498 |
| HMAEPRVQEVYFEFDGKQVEAGQVVSLIEQAYKNEGHQIGRIKDLKVYINSEEGKAYYVINGDDGEGKYIE | 0.0727 |
| HMAESLHVTAAALFEGRAMLGIDGSRRLLRVGETSPEGVKLVSATAREAVIEIDGRRQTLAPGRDT | -0.133 |
